IntAct's records for PubMed 21664272

Biological target: T1, rasa1_human RASA1 (UniProt P20936)
T1 sequence: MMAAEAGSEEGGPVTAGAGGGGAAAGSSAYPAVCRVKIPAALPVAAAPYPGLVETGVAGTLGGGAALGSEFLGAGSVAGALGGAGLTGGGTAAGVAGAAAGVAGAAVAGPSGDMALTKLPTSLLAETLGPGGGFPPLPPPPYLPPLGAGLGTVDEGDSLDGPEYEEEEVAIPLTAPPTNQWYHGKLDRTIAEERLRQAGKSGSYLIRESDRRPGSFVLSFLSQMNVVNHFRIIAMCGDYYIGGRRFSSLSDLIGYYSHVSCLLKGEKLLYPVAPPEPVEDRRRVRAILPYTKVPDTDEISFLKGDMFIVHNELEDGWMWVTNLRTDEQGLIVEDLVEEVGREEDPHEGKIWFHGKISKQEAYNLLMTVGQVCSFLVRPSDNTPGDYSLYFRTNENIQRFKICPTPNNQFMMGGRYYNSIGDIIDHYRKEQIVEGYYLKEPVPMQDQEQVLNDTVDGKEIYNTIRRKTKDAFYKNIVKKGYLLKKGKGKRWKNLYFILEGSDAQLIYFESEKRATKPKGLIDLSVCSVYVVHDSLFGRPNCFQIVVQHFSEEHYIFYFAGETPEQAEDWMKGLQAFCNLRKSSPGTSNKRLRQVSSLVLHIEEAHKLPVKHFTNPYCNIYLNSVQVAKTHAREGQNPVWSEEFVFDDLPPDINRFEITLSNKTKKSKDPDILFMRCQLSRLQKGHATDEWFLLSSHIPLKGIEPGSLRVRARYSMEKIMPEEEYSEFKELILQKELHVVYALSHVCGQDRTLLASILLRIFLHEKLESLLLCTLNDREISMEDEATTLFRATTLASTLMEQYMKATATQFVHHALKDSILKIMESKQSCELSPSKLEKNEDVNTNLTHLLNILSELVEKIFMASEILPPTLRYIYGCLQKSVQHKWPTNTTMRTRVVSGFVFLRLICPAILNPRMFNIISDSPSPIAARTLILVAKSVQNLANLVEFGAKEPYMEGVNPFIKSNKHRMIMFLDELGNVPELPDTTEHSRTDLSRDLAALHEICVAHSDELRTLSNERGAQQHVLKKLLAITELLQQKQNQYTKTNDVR

Substance | effect of a mutation on the interaction
SH2/SH3 adapter protein NCK1 (Homo sapiens) (from UniProt P16333) W38K | decreasing interaction
SH2/SH3 adapter protein NCK1 (Homo sapiens) (from UniProt P16333) W38K;W39K;W143K;W229K | decreasing interaction
SH2/SH3 adapter protein NCK1 (Homo sapiens) (from UniProt P16333) W38K;W143K;W229K;R308K | decreasing interaction
SH2/SH3 adapter protein NCK1 (Homo sapiens) (from UniProt P16333) W38K;W229K;R308K | disrupting interaction
SH2/SH3 adapter protein NCK1 (Homo sapiens) (from UniProt P16333) W143K;W229K;R308K | decreasing interaction
SH2/SH3 adapter protein NCK1 (Homo sapiens) (from UniProt P16333) W229K | decreasing interaction
